What was measured:
[1] = molecular target: mouse DNGR-1 on B3Z-mDNGR-1-Syk reporter cells (mouse) (UniProt Q8BRU4)
[2] = molecular target: DNGR-1 on cDC1s (mouse (endogenous in MutuDC1940 cells and splenic cDC1s)) (UniProt Q8BRU4); assay: flow cytometry on cells; red fluorescent streptavidin beads, uncoated or coated with F-actin or F-actin and myosin II, with GFP-expressing MutuDC1940 cells for 2 hr at 37°C; with isotype control or anti-DNGR-1 antibody 1F6

F-actin and myosin II complexes (from UniProt P68135 1-377; Q28641 1-1938; P02602 1-192; P02608 1-170)
NFAT β-galactosidase reporter activity of B3Z-mDNGR-1-Syk cells, titration of an equimolar mixture of F-actin and myosin II against F-actin alone [1]: 2 log

beads coated with biotinylated F-actin and myosin II (from UniProt P68135 1-377; Q28641 1-1938; P02602 1-192; P02608 1-170) (complex)
percent of MutuDCs associated with beads [2]: < 50%

in vitro polymerized F-actin (from UniProt P68135 1-377) (natural protein)
NFAT β-galactosidase reporter activity of B3Z-mDNGR-1-Syk cells, titration of in vitro polymerized F-actin [1]: > 1 µM
